Target: wild-type PERK BiFC construct (pEZY BiFC pre-NV(CV)-PERK) (human) (UniProt Q9NZJ5)
Assay: split reporter

Sequence of UniProt Q9NZJ5 (Q9NZJ5 30-1116): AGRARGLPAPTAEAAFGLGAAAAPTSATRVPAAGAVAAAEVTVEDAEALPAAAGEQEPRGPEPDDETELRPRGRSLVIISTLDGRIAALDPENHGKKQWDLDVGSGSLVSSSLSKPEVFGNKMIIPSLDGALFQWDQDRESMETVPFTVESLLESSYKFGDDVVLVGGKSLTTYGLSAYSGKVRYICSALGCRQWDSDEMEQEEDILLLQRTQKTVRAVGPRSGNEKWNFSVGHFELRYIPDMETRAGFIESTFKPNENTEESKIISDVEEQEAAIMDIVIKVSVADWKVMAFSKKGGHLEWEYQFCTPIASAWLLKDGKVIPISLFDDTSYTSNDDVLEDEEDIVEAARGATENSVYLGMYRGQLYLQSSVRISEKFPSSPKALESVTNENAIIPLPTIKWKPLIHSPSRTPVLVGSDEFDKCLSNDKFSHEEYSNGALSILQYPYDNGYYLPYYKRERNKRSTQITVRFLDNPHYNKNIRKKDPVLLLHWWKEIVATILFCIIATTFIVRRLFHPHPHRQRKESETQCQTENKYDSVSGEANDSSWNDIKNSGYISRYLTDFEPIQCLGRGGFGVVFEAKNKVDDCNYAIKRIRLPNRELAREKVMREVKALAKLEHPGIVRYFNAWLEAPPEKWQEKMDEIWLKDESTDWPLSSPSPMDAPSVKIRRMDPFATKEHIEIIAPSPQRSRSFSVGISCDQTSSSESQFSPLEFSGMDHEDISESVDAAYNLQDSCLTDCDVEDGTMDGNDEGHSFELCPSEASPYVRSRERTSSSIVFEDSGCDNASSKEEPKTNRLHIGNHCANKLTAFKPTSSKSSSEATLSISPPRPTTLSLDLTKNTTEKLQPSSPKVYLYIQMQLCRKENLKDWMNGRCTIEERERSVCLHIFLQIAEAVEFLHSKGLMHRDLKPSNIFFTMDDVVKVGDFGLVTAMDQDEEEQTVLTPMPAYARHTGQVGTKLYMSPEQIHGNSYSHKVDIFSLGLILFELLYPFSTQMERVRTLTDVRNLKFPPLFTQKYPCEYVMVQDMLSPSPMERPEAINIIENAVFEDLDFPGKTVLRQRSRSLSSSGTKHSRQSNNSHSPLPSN

BiFC fluorescence intensity relative to the CDNF-IRE1α interaction [times higher] | BiFC fluorescent signal relative to wt CDNF and the other mutants [times lower] | Substance
7 | – | CDNF BiFC construct (pEZY BiFC pre-CDNF-NV(CV)) (from UniProt Q49AH0 25-187) (natural protein)
– | 5 | CDNF K122A BiFC construct (natural protein)

— article doi:10.1101/2024.12.17.628889
